Publication PMC8551160, “Structure of PDE3A–SLFN12 complex and structure-based design for a potent apoptosis inducer of tumor cells” (Nature Communications, 2021)

Target: the molecule itself
Assay: cryo-EM structure; PDE3A-SLFN12 (K213R) complex purified from nauclefine-treated HeLa cells; single-particle, C2 symmetry, 3.2 Å

B1: phosphodiesterase 3A (PDE3A), endogenous (enzyme, human (endogenous in HeLa), UniProt Q14432 1-1141, looked up)
chain: MAVPGDAARVRDKPVHSGVSQAPTAGRDCHHRADPASPRDSGCRGCWGDLVLQPLRSSRKLSSALCAGSLSFLLALLVRLVRGEVGCDLEQCKEAAAAEEEEAAPGAEGGVFPGPRGGAPGGGARLSPWLQPSALLFSLLCAFFWMGLYLLRAGVRLPLAVALLAACCGGEALVQIGLGVGEDHLLSLPAAGVVLSCLAAATWLVLRLRLGVLMIALTSAVRTVSLISLERFKVAWRPYLAYLAGVLGILLARYVEQILPQSAEAAPREHLGSQLIAGTKEDIPVFKRRRRSSSVVSAEMSGCSSKSHRRTSLPCIPREQLMGHSEWDHKRGPRGSQSSGTSITVDIAVMGEAHGLITDLLADPSLPPNVCTSLRAVSNLLSTQLTFQAIHKPRVNPVTSLSENYTCSDSEESSEKDKLAIPKRLRRSLPPGLLRRVSSTWTTTTSATGLPTLEPAPVRRDRSTSIKLQEAPSSSPDSWNNPVMMTLTKSRSFTSSYAISAANHVKAKKQSRPGALAKISPLSSPCSSPLQGTPASSLVSKISAVQFPESADTTAKQSLGSHRALTYTQSAPDLSPQILTPPVICSSCGRPYSQGNPADEPLERSGVATRTPSRTDDTAQVTSDYETNNNSDSSDIVQNEDETECLREPLRKASACSTYAPETMMFLDKPILAPEPLVMDNLDSIMEQLNTWNFPIFDLVENIGRKCGRILSQVSYRLFEDMGLFEAFKIPIREFMNYFHALEIGYRDIPYHNRIHATDVLHAVWYLTTQPIPGLSTVINDHGSTSDSDSDSGFTHGHMGYVFSKTYNVTDDKYGCLSGNIPALELMALYVAAAMHDYDHPGRTNAFLVATSAPQAVLYNDRSVLENHHAAAAWNLFMSRPEYNFLINLDHVEFKHFRFLVIEAILATDLKKHFDFVAKFNGKVNDDVGIDWTNENDRLLVCQMCIKLADINGPAKCKELHLQWTDGIVNEFYEQGDEEASLGLPISPFMDRSAPQLANLQESFISHIVGPLCNSYDSAGLMPGKWVEDSDESGDTDDPEEEEEEAPAPNEEETCENNESPKKKTFKRRKIYCQITQHLLQNHKMWKKVIEEEQRLAGIENQSLDQTPQSHSSEQIQAIKEEEEEKGKPRGEEIPTQKPDQ
notes: PDE3A, human, endogenous in HeLa cells; appeared as its full length in the purification; only the catalytic domain K669-Q1102 is resolved in the cryo-EM maps; the purified band is called full length; It is a homodimer in the complex structures; source: endogenous, HeLa; in lysate (co-IP); co-purified with tagged SLFN12 by Flag-HA tandem pull-down (cryo-EM)
  stoichiometry N: 2
